Measured values: patent publication US20150346208A1 (SPRING BIOSCIENCE, published 2015)

T1: peptide immunogen CGIQDTNSKKQSDTHLEET (human PD-L1 aa 272-290) (human)
T1 construct: Synthetic peptide, immobilized in the ELISA; also called immobilized peptide immunogen; 19-amino acid peptide
T1 peptide: CGIQDTNSKKQSDTHLEET

B1: SP263 rabbit anti-human PD-L1 monoclonal antibody (antibody, V domains shown)
VH: QSLEESGGRLVTPGTPLTLTCTASGFSLSNHAISWVRQAPGKGLEWIGTINSDTHTYYATWPKGRFTISKTSSTTVDLKMTSPTTEDTATYFCARRIFSSSNIWGPGTLVTVSS
VL: AIVMTQTSSPVSAVVGGTVAINCQASQSIYNNNWLSWFQQKPGQPPKLLIYLASTLASGVPSRFKGSGSGTQFTLTISDVVCDDAATYYCIGGESSNNDGIAFGGGTEVVVK
notes: the rabbit constant regions are not; also called SP263 anti-PD-L1 antibody
B2: J45H2L4 rabbit anti-human PD-L1 monoclonal antibody (antibody, V domains shown)
VH: QSLEESGGRLVTPGTPLTLTCTASGFSLSSNAISWVRQAPGKGLEWIGTINSDSHIYSATWAKGRFTISKTSTAVDLKMTSPTTEDTATYFCAGRLFSSTNIWGPGTLVTVSS
VL: VMTQTSSPVSAAVGGTVTINCQASQSIYKDNWLSWFQQKPGQPPKLLIYLASTLASGVPSRFKGSGSGTQFTLTISDVVCDDAATYYCLGGESSSDDGIAFGGGTEVVVK
notes: the rabbit constant regions are not; also called anti-PD-L1 antibody clone J45H2L4

How the values were obtained:
[1] = biological target: T2, human PD-L1 (Programmed death ligand-1) (human, UniProt Q9NZQ7 19-290); assay: IHC on FFPE placenta, 0.11-28 µg/ml
T2 construct: whole, on cells; Endogenous protein; For IHC it was in formalin-fixed, paraffin-embedded tissue sections; for the Western blot it was in SDS-PAGE-fractionated cell lysates (45-55 kDa band); also called B7-H1; PDCD1L1

[2] = biological target: T1, peptide immunogen CGIQDTNSKKQSDTHLEET …; assay: ELISA, immobilized peptide immunogen (human PD-L1 aa272-290)
Protocol: ELISA studies were performed with the SP263 antibody to evaluate binding to the immobilized peptide immunogen (human PD-L1 aa272-290).

[3] = biological target: T2, human PD-L1 (Programmed death ligand-1); assay: IHC on FFPE placenta, 0.9 µg/ml
Protocol: Rabbit anti-human PD-L1 monoclonal antibodies SP263, J45H2L4 and J27H6L4 were applied onto formalin-fixed paraffin embedded (FFPE) tissue samples to assess the staining patterns of these antibodies. Tissue samples include placenta (positive control), stomach (negative control) and colon. Immunohistochemistry was performed on BenchMark Ultra (Ventana Medical System) using StdCC1 cell conditioning and standard Opt iView DAB detection protocol. Each primary antibody was incubated at 0.9 μg/ml for 16 min.

T2 sequence (Q9NZQ7 19-290): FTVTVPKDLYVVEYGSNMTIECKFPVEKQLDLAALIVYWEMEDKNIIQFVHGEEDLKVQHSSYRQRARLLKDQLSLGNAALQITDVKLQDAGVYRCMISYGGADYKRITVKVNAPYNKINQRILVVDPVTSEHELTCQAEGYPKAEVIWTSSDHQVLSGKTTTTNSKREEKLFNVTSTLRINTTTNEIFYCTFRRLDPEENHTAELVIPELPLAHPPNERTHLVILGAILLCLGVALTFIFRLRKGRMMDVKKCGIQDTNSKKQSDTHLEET

Row | Binder | binding result [1] | EC50 [2] | binding result [3]
1 | B1 | binds | 0.015 nM | –
2 | B2 | – | – | binds
